The values that follow come from publication PMC8580825, “Scaffolding protein CcmM directs multiprotein phase separation in β-carboxysome biogenesis” (Nature Structural & Molecular Biology, 2021).

The labels stand for the following.
T1: RbcL8 core complex of Rubisco (Synechococcus elongatus PCC 7942)
T1 chain: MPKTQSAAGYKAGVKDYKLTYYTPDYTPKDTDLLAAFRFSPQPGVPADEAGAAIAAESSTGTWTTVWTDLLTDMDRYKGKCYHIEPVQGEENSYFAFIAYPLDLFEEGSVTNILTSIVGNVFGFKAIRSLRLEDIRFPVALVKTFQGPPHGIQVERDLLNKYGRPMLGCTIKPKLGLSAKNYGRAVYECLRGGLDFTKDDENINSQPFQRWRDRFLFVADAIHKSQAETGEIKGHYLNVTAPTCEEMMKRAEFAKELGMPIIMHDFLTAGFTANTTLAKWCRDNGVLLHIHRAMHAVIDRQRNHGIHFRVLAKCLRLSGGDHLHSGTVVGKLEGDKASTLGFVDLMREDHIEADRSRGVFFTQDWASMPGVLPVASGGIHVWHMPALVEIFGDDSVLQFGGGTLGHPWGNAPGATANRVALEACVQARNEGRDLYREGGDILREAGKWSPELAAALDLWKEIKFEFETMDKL

T2: M58(R164D) (Synechococcus elongatus PCC 7942, UniProt Q03513 1-539, R164D)
T2 construct: CcmM (M58), Synechococcus elongatus PCC 7942, point mutant in the γCAL domain (head-to-head salt bridge); also called SeM58-R164D; M58oxR164D; source: E. coli BL21 (DE3), purified as wild-type M58; not shown: His6-ubiquitin, N-terminal, cleaved
T2 sequence (looked up): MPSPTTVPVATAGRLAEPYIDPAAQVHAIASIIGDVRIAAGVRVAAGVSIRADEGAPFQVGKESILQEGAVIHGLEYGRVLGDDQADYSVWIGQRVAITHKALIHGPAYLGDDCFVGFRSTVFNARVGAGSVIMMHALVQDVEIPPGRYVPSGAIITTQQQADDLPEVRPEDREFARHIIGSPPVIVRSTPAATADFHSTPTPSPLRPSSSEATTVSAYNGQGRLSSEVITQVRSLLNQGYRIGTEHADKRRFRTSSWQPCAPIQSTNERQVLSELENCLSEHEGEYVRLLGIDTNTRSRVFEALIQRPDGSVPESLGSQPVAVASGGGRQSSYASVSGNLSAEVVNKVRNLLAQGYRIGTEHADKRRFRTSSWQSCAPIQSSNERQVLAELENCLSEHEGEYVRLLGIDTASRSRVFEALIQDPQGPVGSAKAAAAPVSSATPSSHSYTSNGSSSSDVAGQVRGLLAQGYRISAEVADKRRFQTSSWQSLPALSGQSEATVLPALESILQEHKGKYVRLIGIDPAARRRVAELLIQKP

T3: M58(D172K) (Synechococcus elongatus PCC 7942, UniProt Q03513 1-539, D172K)
T3 construct: CcmM (M58), Synechococcus elongatus PCC 7942, point mutant in the γCAL domain (head-to-head salt bridge); also called SeM58-D172K; M58oxD172K; source: E. coli BL21 (DE3), purified as wild-type M58; not shown: His6-ubiquitin, N-terminal, cleaved
T3 sequence (looked up): T2 sequence (looked up) with D164R, D172K

B1: CcmM full-length protein M58 of Synechococcus elongatus PCC 7942 (natural protein, UniProt Q03513 1-539, looked up)
chain: T2 sequence (looked up) with D164R
notes: CcmM (M58, ~58 kDa), Synechococcus elongatus PCC 7942; full-length ccmM gene amplified from genomic DNA; SeCcmM (1-539); Used reduced (M58red, 5 mM DTT) or oxidized (M58ox, 2 mM H2O2; disulfides in SSUL modules); For microscopy labelled at the N terminus with Alexa532 and mixed 1:10 with unlabelled protein; also called SeM58; M58red; source: E. coli BL21 (DE3), purified (Ni-NTA, H6Ub cleaved with …)
B2: γCAL-2S (domain or fragment, Synechococcus elongatus PCC 7942, UniProt Q03513 1-429, looked up)
chain: MPSPTTVPVATAGRLAEPYIDPAAQVHAIASIIGDVRIAAGVRVAAGVSIRADEGAPFQVGKESILQEGAVIHGLEYGRVLGDDQADYSVWIGQRVAITHKALIHGPAYLGDDCFVGFRSTVFNARVGAGSVIMMHALVQDVEIPPGRYVPSGAIITTQQQADRLPEVRPEDREFARHIIGSPPVIVRSTPAATADFHSTPTPSPLRPSSSEATTVSAYNGQGRLSSEVITQVRSLLNQGYRIGTEHADKRRFRTSSWQPCAPIQSTNERQVLSELENCLSEHEGEYVRLLGIDTNTRSRVFEALIQRPDGSVPESLGSQPVAVASGGGRQSSYASVSGNLSAEVVNKVRNLLAQGYRIGTEHADKRRFRTSSWQSCAPIQSSNERQVLAELENCLSEHEGEYVRLLGIDTASRSRVFEALIQDPQGPV
notes: C-terminal truncation of CcmM (M58), Synechococcus elongatus PCC 7942, with the γCAL domain and two SSUL modules, residues 1-429; also called SeγCAL-2S(1–429); γCAL-2Sox; source: E. coli BL21 (DE3), purified as M58; not shown: His6-ubiquitin, N-terminal, cleaved
B3: β-class carbonic anhydrase CcaA of Synechococcus elongatus PCC 7942 (enzyme, UniProt P27134 1-272, looked up)
chain: MRKLIEGLRHFRTSYYPSHRDLFEQFAKGQHPRVLFITCSDSRIDPNLITQSGMGELFVIRNAGNLIPPFGAANGGEGASIEYAIAALNIEHVVVCGHSHCGAMKGLLKLNQLQEDMPLVYDWLQHAQATRRLVLDNYSGYETDDLVEILVAENVLTQIENLKTYPIVRSRLFQGKLQIFGWIYEVESGEVLQISRTSSDDTGIDECPVRLPGSQEKAILGRCVVPLTEEVAVAPPEPEPVIAAVAAPPANYSSRGWLAPEQQQRIYRGNAS
notes: CcaA (~30 kDa), Synechococcus elongatus PCC 7942; ccaA gene amplified from genomic DNA; 272 residues (last 17 are 256-272); For microscopy labelled at the N terminus with Alexa405 and mixed 1:10 with unlabelled protein; also called CcaAAF4; source: E. coli BL21 (DE3), purified (Ni-NTA, H6Ub cleaved, SEC); not shown: His6-ubiquitin, N-terminal, cleaved
B4: Rubisco holoenzyme (RbcL8S8) of Synechococcus elongatus PCC 7942 (complex)
chain 1: T1 chain
chain 2: MSMKTLPKERRFETFSYLPPLSDRQIAAQIEYMIEQGFHPLIEFNEHSNPEEFYWTMWKLPLFDCKSPQQVLDEVRECRSEYGDCYIRVAGFDNIKQCQTVSFIVHRPGRY

Positions count from the first letter of the chain named.

In data set [1] the target is T1, RbcL8 core complex of Rubisco. Briefly: turbidity assay; 0.25 μM RbcL8 with M58red or M58ox at varied concentrations; M35red or M35ox with RbcL8 as controls; 50–200 mM KCl. To be noted: both partners purified.
Data set [2] concerns the target CcmM full-length protein M58 of Synechococcus elongatus PCC 7942 (Synechococcus elongatus PCC 7942) (UniProt Q03513). Briefly: SEC-MALS; 2 mg/ml protein; 50 mM Tris-HCl pH 8.0/150 mM KCl or 50 mM Tris-HCl pH 8.0/500 mM KCl/5 mM DTT; 25 °C; oligomeric state in solution.
Data set [3] concerns the molecule itself. As to the kind of experiment: turbidity assay; one protein alone (homodemixing: association of trimers into a homocondensate); 50 mM KCl; M58ox 0.5–3.0 μM, M58red 5 and 6 μM; truncations and point mutants oxidized at 3 μM; M58-C4S and CCTRIM35 at 5 μM; 25 °C.
A further data set has as its target T2, M58(R164D). Briefly: turbidity assay; absorbance at 340 nm, 25 °C, 50 mM Tris-HCl pH 8.0, 10 mM Mg(OAc)2; 0.5 μM CcaA or its mutants (0–1.25 μM for the apparent KD) with 0.5 μM M58 or its truncations and mutants, 0.75 μM γCAL198 or 2.25 μM M35; 100 mM KCl (50–400 mM in the salt series); reducing (5 mM DTT) or oxidizing; apparent; a protein alone: association of its oligomers into condensates. To be noted: both partners purified.

The target of data set [4] is B1. The data set is described as above. The conditions noted are these: both partners purified.
The target in another data set is T3, M58(D172K). Described as above. To be noted: both partners purified.
In data set [5] the target is β-class carbonic anhydrase CcaA of Synechococcus elongatus PCC 7942 (Synechococcus elongatus PCC 7942) (UniProt P27134). As to the kind of experiment: SEC-MALS; 2 mg/ml protein; 50 mM Tris-HCl pH 8.0/150 mM KCl or 50 mM Tris-HCl pH 8.0/500 mM KCl/5 mM DTT; 25 °C; oligomeric state in solution.
In data set [6] the target is B1. Briefly: turbidity assay; 0.25 μM Rubisco (RbcL8S8) with increasing M58red, M58ox, CCTRIM35red or CCTRIM35ox at 50 mM KCl; or with 0.25 μM M58, 0.25 μM CCTRIM35 or 0.75 μM M35 at 50 and 100 mM KCl; reducing or oxidizing; apparent. To be noted: both partners purified.

As for B1, the “fold lower affinity than for the Rubisco holoenzyme” value in data set [1] is ~4 fold. The stoichiometry N in data set [2] was found to be 3.

Regarding B2, in data set [3], the binding result is given as “binds”.

In the case of B3, the binding result with M58(R164D) and with M58(D172K) was “binds” in each case. For the same molecule, the Kd in data set [4] was ~200 nM. Also, the stoichiometry N in data set [5] was determined as 4.

As for B4, in data set [6], the Kd was ~70 nM.

The term stoichiometry N denotes a count of units in the complex or per binding partner.
